The results in this text go back to paper PMC8203779, “Distinct mechanisms of the human mitoribosome recycling and antibiotic resistance” (Nature Communications, 2021).

This assay has as its target mitoribosomal protein uL12m (39S subunit, L10-L12 stalk) (human (endogenous in HEK293S GnTI), UniProt P52815 37-198). Nature of the assay: cryo-EM structure; model PoTC (150 nM 55S mitoribosomes + 50 uM puromycin, 10 min 37 °C) with 15 uM RRFmt (5 min 37 °C), then 5 uM EF-G2mt + 200 uM GMPPCP (5 s, 30 s, 2 min, 37 °C), HEPES polymix buffer pH 7.5; single-particle classes: Class I 55S•RRFmt, Class II 55S•RRFmt•EF-G2mt•GMPPCP, Class III 39S•RRFmt•EF-G2mt•GMPPCP. The note with it: both partners purified.

B1: human EF-G2mt (recycling-specific mitochondrial homolog of elongation factor G) (natural protein)
chain: MLTNLRIFAMSHQTIPSVYINNICCYKIRASLKRLKPHVPLGRNCSSLPGLIGNDIKSLHSIINPPIAKIRNIGIMAHIDAGKTTTTERILYYSGYTRSLGDVDDGDTVTDFMAQERERGITIQSAAVTFDWKGYRVNLIDTPGHVDFTLEVERCLRVLDGAVAVFDASAGVEAQTLTVWRQADKHNIPRICFLNKMDKTGASFKYAVESIREKLKAKPLLLQLPIGEAKTFKGVVDVVMKEKLLWNCNSNDGKDFERKPLLEMNDPELLKETTEARNALIEQVADLDDEFADLVLEEFSENFDLLPAEKLQTAIHRVTLAQTAVPVLCGSALKNKGIQPLLDAVTMYLPSPEERNYEFLQWYKDDLCALAFKVLHDKQRGPLVFMRIYSGTIKPQLAIHNINGNCTERISRLLLPFADQHVEIPSLTAGNIALTVGLKHTATGDTIVSSKSSALAAARRAEREGEKKHRQNNEAERLLLAGVEIPEPVFFCTIEPPSLSKQPDLEHALKCLQREDPSLKVRLDPDSGQTVLCGMGELHIEIIHDRIKREYGLETYLGPLQVAYRETILNSVRATDTLDRTLGDKRHLVTVEVEARPIETSSVMPVIEFEYAESINEGLLKVSQEAIENGIHSACLQGPLLGSPIQDVAITLHSLTIHPGTSTTMISACVSRCVQKALKKADKQVLEPLMNLEVTVARDYLSPVLADLAQRRGNIQEIQTRQDNKVVIGFVPLAEIMGYSTVLRTLTSGSATFALELSTYQAMNPQDQNTLLNRRSGLT
notes: mitochondrial elongation factor G2 (EF-G2mt), human, 87 kD; contact residues up to Leu778 are printed; Cloned into pGEX6.1; also called EF-G2mt-GMPPCP; source: Rossetta (pLysS + RARE) cells, purified (GSTrap HP, GST cleaved with 3C protease, HiTrap Q HP)
Take B1: the binding result is reported as “binds”.
